Laboratory results as given in patent publication US20230087600A1.

What was measured:
[1] = molecular target: T1, mouse IL-10 receptor (IL-10R) on T cells and B cells of C57BL/6 mouse splenocytes (mouse) (UniProt Q61727); experiment: cell-based or functional assay
T1 sequence (looked up) 1: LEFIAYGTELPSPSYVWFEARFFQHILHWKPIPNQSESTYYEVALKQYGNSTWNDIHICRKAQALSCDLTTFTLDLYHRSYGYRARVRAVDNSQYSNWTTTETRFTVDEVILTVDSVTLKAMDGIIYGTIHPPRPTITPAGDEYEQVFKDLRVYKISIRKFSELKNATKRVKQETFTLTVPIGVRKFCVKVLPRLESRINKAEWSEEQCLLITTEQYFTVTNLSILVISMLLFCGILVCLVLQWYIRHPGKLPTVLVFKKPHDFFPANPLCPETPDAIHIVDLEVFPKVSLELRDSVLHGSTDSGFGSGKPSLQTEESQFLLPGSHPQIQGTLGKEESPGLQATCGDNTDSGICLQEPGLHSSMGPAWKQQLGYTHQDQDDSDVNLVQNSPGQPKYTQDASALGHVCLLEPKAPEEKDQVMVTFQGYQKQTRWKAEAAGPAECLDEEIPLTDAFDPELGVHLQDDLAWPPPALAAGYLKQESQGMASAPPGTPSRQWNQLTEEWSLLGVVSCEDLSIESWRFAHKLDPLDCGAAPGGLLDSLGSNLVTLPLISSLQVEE
T1 sequence (looked up) 2: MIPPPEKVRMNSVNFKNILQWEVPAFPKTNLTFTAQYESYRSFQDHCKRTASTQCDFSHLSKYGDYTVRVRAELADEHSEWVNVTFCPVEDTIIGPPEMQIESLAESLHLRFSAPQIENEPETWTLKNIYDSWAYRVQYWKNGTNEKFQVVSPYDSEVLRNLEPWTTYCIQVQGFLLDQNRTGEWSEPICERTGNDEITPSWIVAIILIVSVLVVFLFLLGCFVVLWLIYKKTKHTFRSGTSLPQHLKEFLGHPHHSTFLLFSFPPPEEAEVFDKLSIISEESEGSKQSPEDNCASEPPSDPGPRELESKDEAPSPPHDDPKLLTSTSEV

[2] = molecular target: human IL-10 receptor (IL-10R) on T cells and B cells of human whole blood (human) (UniProt Q13651); experiment: cell-based or functional assay
Chain of human IL-10 receptor (IL-10R) on T cells and B cells of human whole blood (human) (Q13651 22-578, chain 1 of 2): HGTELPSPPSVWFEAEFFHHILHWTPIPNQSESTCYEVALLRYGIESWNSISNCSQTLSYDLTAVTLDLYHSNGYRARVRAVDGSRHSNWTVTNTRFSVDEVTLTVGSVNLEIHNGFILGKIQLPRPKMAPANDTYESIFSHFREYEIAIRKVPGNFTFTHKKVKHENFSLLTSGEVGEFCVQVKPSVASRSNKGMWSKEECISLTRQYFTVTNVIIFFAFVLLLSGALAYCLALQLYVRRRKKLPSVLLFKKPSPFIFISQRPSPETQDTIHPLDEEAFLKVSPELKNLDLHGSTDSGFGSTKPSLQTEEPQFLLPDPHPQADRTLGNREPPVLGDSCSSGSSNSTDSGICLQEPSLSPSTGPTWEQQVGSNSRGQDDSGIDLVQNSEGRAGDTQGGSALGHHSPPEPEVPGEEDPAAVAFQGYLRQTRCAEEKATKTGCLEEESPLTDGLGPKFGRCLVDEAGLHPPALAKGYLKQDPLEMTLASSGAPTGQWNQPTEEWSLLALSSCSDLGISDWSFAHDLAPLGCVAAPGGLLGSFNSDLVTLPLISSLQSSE
Chain of human IL-10 receptor (IL-10R) on T cells and B cells of human whole blood (human) (Q08334 20-325, chain 2 of 2, further chain): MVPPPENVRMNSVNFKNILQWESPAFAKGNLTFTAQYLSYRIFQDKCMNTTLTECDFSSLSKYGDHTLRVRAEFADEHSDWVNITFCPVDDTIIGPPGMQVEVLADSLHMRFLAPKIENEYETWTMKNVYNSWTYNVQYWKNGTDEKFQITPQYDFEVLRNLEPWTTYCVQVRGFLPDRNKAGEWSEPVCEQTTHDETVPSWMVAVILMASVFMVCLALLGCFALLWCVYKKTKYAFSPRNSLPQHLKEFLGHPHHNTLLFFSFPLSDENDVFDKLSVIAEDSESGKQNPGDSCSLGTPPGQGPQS

STAT3 phosphorylation (pY705), flow cytometry, B cells of C57BL/6 mouse splenocytes (CD19 + B cells), EC50 [1] [pM]	STAT3 phosphorylation (pY705), flow cytometry, CD3+ T cells of C57BL/6 mouse splenocytes, EC50 [1] [pM]	STAT3 phosphorylation (pY705), flow cytometry, CD3+ T cells in human whole blood, EC50 [2] [pM]	STAT3 phosphorylation (pY705), flow cytometry, CD19+ B cells in human whole blood, EC50 [2] [pM]	Substance
125	441	–	–	mIgG1-D265A-Fc-(G4S)4-mIL-10 (Fc fusion)
–	–	167	347	5KPEG-hIL-10 (human IL-10 conjugated to 5 KD PEG) (from UniProt P22301 19-178) (ligand)
